Reference: paper PMC5730846 (2017)

What was measured:
recombinant Hsp90α [1] = molecular target: T1, recombinant Hsp90α (human, UniProt P07900 1-732); assay: FP; ADP
recombinant Hsp90α [2] = molecular target: T1, recombinant Hsp90α; assay: FP; AMPPNP

B1: Tsc1-D-His6 labeled with Texas Red maleimide (domain or fragment)
chain: DGCSDSMVGHNEEASGHNGETKTPRPSSARGSSGSRGGGGSSSSSSELSTPEKPPHQRAGPFSSRWETTMGEASASIPTTVGSLPSSKSFLGMKARELFRNKSESQCDEDGMTSSLSESLKTELGKDLGVEAKIPLNLDGPHPSPPTPDSVGQLHIMDYNETHHEHS
modifications: Texas Red C2 maleimide label, 0.8 labels/Tsc1-D
Kd (recombinant Hsp90α [1]): 810 nM
Kd (recombinant Hsp90α [2]): 240 nM
